The values below come from publication PMC9472132 (Journal for Immunotherapy of Cancer, 2022).

In experiment [1] the target is T1, human CD27 expressed on CHO-K1 cells (human, UniProt P26842). The experiment in a line: ELISA. On the technique in general: An ELISA detects its analyte on a solid surface through an enzyme-linked reagent.
For experiment [2], the target named is rhesus monkey CD27 expressed on CHO-K1 cells (Macaca mulatta, UniProt F7BYS2). In words: ELISA.
Experiment [3] has as its target T2, rhesus monkey CD27 on primary peripheral blood T cells (Macaca mulatta, UniProt F7BYS2). In words: flow cytometry on cells. A general note: A flow cytometer gives signals particle by particle.
Experiment [4] concerns the target T3, human CD27 on primary peripheral blood T cells (Homo sapiens (Human)., UniProt P26842). In words: flow cytometry on cells.
Experiment [5] addresses T2, rhesus monkey CD27 on primary …. The experiment in a line: flow cytometry on cells. This is another data set of the same source.
Experiment [6] concerns the target T3, human CD27 on primary peripheral blood …. The experiment in a line: flow cytometry on cells. This is another data set of the same source.
Experiment [7] concerns the target human CD27-IgG fusion protein (Homo sapiens (Human)., UniProt P26842). In words: SPR. (Surface plasmon resonance follows binding to a sensor surface in real time, without labels.)
The target of experiment [8] is rhesus monkey CD27-IgG fusion protein (Macaca mulatta, UniProt F7BYS2). In words: SPR.
Experiment [9] concerns the target T1, human CD27 expressed on CHO-K1 cells. The experiment in a line: flow cytometry on cells.

Read-outs that look alike come from different tables or passages of the source.

B1: varlilumab analog (anti-CD27 fully human IgG1 antibody, made in-house from published patented sequences) (antibody, V domains shown)
VH: QVQLVESGGGVVQPGRSLRLSCAASGFTFSSYDMHWVRQAPGKGLEWVAVIWYDGSNKYYADSVKGRFTISRDNSKNTLYLQMNSLRAEDTAVYYCARGSGNWGFFDYWGQGTLVTVSS
VL: DIQMTQSPSSLSASVGDRVTITCRASQGISRWLAWYQQKPEKAPKSLIYAASSLQSGVPSRFSGSGSGTDFTLTISSLQPEDFATYYCQQYNTYPRTFGQGTKVEIK
As to B1, the half-maximal effective concentration (EC50) – broadly, the concentration needed to bring the measured effect to its halfway point – in experiment [1] came to 0.325 nM; in experiment [2], 0.193 nM; in [3], 1.58 nM; in experiment [4], 1.54 nM; in experiment [5] it was 1.92 nM; in [6], 1.3 nM. Further, the Kd (commonly the free concentration of one partner at which half of the binding sites on the other are occupied at equilibrium, for simple one-to-one binding) in experiment [7] came out at 0.63 nM; in [8], 0.97 nM. The values for the koff in experiment [7] and in experiment [8] were 0.00012 s⁻¹ and 0.00022 s⁻¹, respectively. For the same molecule, the kon (commonly the second-order rate constant of association) in experiment [7] worked out at 190000 M⁻¹ s⁻¹; in experiment [8], 230000 M⁻¹ s⁻¹. For the same molecule, the IC50 – broadly, the point on the concentration scale where inhibition reaches its midpoint – in experiment [9] turned out to be 2.85 nM.

B2: MK-5890 (humanized anti-human CD27 agonist antibody, hIgG1) (antibody, V domains shown)
VH: EIQLVQSGAEVKKPGASVKVSCKASGYTFTNYGMNWVKQAPGQGLKWMGWINTNTGEPTYAEEFKGRFTFTLDTSISTAYMELSSLRSEDTAVYYCAREGDAMDYWGQGTTVTVSS
VL: EIVLTQSPATLSLSPGERATLSCSASSSVSYMHWYQQKPGQAPKRWIYDTSKLASGVPARFSGSGSGTDYSLTISSLEPEDFAVYYCQQWNSYPFTFGQGTKLEIK
Consider B2, for which the EC50 amounted to 0.072 nM in [1]; 0.054 nM in [2]; 0.17 nM in experiment [3]; 0.32 nM in experiment [4]; 0.22 nM in experiment [5]; 0.3 nM in experiment [6]. Besides, the Kd in [7] amounted to 5.1 nM; in [8], 4.3 nM. In addition, the koff (commonly the first-order rate constant of dissociation) in experiment [7] was 0.0011 s⁻¹; in experiment [8] it was 0.001 s⁻¹. For the same molecule, the kon in experiment [7] was found to be 220000 M⁻¹ s⁻¹; in [8] it was 230000 M⁻¹ s⁻¹. 0.24 nM corresponded to half-maximal inhibition in [9] (IC50).
